Values quoted from earlier work, collected in paper PMC12115143.

Legend:
[1] = target: AHP1 (Arabidopsis thaliana) (UniProt Q9ZNV9)
[2] = target: AHP2 (Arabidopsis thaliana) (UniProt Q9ZNV8)
UniProt Q9ZNV8, sequence (Q9ZNV8 whole entry): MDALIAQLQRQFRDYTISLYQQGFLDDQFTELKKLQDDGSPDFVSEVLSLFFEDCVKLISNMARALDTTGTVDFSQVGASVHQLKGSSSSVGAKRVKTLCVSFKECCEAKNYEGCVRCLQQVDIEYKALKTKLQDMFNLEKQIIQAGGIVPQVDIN

UniProt Q9ZNV9, sequence (Q9ZNV9 whole entry): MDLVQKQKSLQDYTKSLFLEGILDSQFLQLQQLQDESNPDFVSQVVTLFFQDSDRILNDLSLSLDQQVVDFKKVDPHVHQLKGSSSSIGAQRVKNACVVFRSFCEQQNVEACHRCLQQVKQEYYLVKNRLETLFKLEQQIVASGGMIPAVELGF

Substance | Kd [1] [nM] | Kd [2] [nM]
ETR1 (from UniProt P49333) | 1500 | 
AHK1 (from UniProt Q9SXL4) |  | 300
